Measurements taken from US11673916B2, “Neuroprotective peptides and methods of their use” (University of Pittsburgh—Of the Commonwealth System of …, priority 2020, dated 2023).

Target: T1, Kv2.1-VAPA association (Rattus norvegicus, UniProt P15387+Q9Z270)
T1 construct: endogenous in cells; host or cells: primary rat cortical neurons (untransfected, fixed and immunolabelled)
T1 sequence (P15387 1-857): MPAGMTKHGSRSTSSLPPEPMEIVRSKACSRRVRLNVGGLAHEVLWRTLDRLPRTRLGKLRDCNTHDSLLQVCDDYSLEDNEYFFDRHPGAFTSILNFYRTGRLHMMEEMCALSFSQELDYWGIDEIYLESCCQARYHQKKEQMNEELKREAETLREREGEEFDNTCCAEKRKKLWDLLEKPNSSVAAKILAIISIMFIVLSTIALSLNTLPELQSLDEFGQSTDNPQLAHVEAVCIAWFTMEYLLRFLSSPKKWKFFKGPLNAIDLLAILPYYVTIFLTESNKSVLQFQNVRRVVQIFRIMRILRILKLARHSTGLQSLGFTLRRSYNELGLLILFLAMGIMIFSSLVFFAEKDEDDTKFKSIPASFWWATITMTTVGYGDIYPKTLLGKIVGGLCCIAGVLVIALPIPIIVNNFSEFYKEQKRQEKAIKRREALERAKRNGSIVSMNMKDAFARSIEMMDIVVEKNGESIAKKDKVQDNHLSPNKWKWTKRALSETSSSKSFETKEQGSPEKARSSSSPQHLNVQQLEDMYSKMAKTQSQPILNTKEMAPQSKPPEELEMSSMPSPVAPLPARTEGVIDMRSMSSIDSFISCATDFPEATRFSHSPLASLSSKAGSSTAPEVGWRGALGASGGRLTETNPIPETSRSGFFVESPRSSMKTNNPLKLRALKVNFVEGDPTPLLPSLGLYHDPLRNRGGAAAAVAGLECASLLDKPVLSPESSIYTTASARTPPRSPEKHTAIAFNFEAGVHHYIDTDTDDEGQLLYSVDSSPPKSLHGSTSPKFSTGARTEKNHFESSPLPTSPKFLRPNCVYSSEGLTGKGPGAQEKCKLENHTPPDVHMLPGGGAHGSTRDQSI
T1 sequence (Q9Z270 2-249 limits assumed): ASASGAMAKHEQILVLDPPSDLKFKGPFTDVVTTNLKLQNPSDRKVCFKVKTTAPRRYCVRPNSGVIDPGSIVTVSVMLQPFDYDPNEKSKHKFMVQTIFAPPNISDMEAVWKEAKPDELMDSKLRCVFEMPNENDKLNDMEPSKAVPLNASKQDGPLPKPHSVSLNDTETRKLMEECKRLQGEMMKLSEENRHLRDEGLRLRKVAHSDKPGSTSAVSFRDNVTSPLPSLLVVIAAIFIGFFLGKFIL
Assay: Proximity ligation assay (PLA) of Kv2.1-VAPA association in cortical neurons
Assay type: cell-based
Details: 10 μM peptide, 2-hour treatment, means+/-SEM (FIG. 3C)
Procedure: Duolink proximity ligation assay (PLA) technology (Sigma-Aldrich, St. Louis, Mo.) was utilized to assess in situ protein-protein interaction between Kv2.1 and vesicle-associated […] protein (VAMP)-associated protein A (VAPA). Primary cortical neurons on glass coverslips were treated in 24-well plates with vehicle (dH2O), TAT-Sc-2 (10 μM), or TAT-DP-2 (10 μM) for 2 hours at 37° C./5% CO2. Neurons were then rinsed with 2 mL ice-cold sterile PBS and then transferred to 1 mL 4% paraformaldehyde (PFA) in PBS for 20 minutes to fix. Coverslips were transferred to 1 mL 0.1 M glycine (in PBS) to quench fixation and rinsed three times in 1 mL PBS. […]
PLA puncta were imaged on a Nikon A1+ confocal microscope (Nikon, Tokyo, Japan) with a 60× objective. […] PLA puncta signals were then obtained by capturing 25 optical sections (0.5 μm) that constrained the entire Z-width of PLA-TRITC fluorescence as MAX-IP files. […] NIS-Elements AR object count feature was then utilized to analyze the quantity of PLA puncta per cell. […] As distinct local PLA puncta-TRITC auto-fluorescence (markedly different in appearance from PLA puncta) was noted, local background subtraction using a small ROI within this region was performed in a protocol similar to that described earlier (Glynn, et al., Nat Protoc. 1: 1287-1296, 2006). […]

Question: With “YGRKKRRQRRRDFSSIST [TAT-Sc-2, TAT-linked scramble control peptide]” as the sequence, how does the “PLA puncta per square micron of neuronal soma” value read?
Answer: Its value is 0.10+/−0.06 #PLA puncta/sq. micron of cell soma.

Question: With “YGRKKRRQRRRSIDSFTS [TAT-DP-2, TAT-linked declustering peptide 2]” as the sequence, how does the “PLA puncta per square micron of neuronal soma” value read?
Answer: Its value is 0.06+/−0.01 #PLA puncta/sq. micron of cell soma.
